This is an account of results in publication PMC2810291, “Identification and characterization of endonuclein binding proteins: evidence of modulatory effects on signal transduction and chaperone activity” (BMC Biochemistry, 2009).

This test addresses T1, recombinant endonuclein (human, UniProt Q13610 2-501).
T1 construct: human endonuclein, coding region Asn2-Ser501 of the 2309.2 cDNA, in the vector pT7-PL; also called IEF SSP 9502; PWP1 (yeast homologue's name)
Nature of the test: SPR; BIAcore 2000; endonuclein amine-coupled to a CM5 chip (3302 RU); analytes at 1 μM or 5 μM in 10 mM Hepes, 150 mM NaCl, 5 mM CaCl2, 1 mM EGTA, pH 7.4, 0.005% P20; control flow channel subtracted. As to conditions: both partners purified.

B1: recombinant TIP-1 as fusion protein with glutathion S-transferase (natural protein, UniProt O14907 1-124, looked up)
chain: MSYIPGQPVTAVVQRVEIHKLRQGENLILGFSIGGGIDQDPSQNPFSEDKTDKGIYVTRVSEGGPAEIAGLQIGDKIMQVNGWDMTMVTHDQARKRLTKRSEEVVRLLVTRQSLQKAVQQSMLS
notes: TIP-1, coding region of the cDNA amplified with primers from the start codon (ATG-TCC-TAC-ATC-CCG-GGC-CA) to the stop codon, in pGEX-4T3; pGEX-4T3 is known to place GST at the N-terminus; also called GST-TIP-1; source: E. coli, purified (pGEX, according to the manufacturer)
With B1, the binding result is reported as “binds”.
